These results are taken from paper PMC7699296, “Dual-Channel Stopped-Flow Apparatus for Simultaneous Fluorescence, Anisotropy, and FRET Kinetic Data Acquisition for Binary and Ternary Biological Complexes” (Biosensors, 2020).

What all share (conditions): both partners purified
In test [1] the target is T1, full-length Tata Binding Protein from Saccharomyces cerevisiae (Saccharomyces cerevisiae, UniProt P13393 1-240).
T1 construct: also called yTBP; TBP; source: Escherichia coli, purified
T1 sequence (looked up): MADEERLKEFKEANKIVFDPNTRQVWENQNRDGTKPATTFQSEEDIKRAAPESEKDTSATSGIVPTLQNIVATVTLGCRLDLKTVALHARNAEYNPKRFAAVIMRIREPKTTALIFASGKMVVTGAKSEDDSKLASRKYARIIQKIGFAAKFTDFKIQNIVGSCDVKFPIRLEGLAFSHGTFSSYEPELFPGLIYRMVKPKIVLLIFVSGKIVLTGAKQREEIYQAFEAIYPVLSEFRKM
Description: stopped-flow fluorescence anisotropy kinetics (dual-channel, rF(t)); 25 °C; preformed yTBP (220 nM)-AdMLP31ds*Flint (20 nM) in syringe 1, 850 nM TFIIA in syringe 2 (concentrations after mixing); 25 mM Tris, 100 mM KCl, 5 mM MgCl2, 1 mM CaCl2, 2 mM DTT; biphasic fit, kon from the fast eigenvalue.

Test [2] deals with T1, full-length Tata Binding Protein from …. The experiment in a line: stopped-flow fluorescence anisotropy kinetics (dual-channel, rF(t)); derived over the range 15 °C to 25 °C from the kon values: van't Hoff plot, and KD estimated with a dissociation rate constant cited from other work.
Test [3] shares this target. Description: stopped-flow fluorescence anisotropy kinetics (dual-channel, rF(t)); 15 °C; preformed yTBP (220 nM)-AdMLP31ds*Flint (20 nM) in syringe 1, 850 nM TFIIA in syringe 2 (concentrations after mixing); 25 mM Tris, 100 mM KCl, 5 mM MgCl2, 1 mM CaCl2, 2 mM DTT; biphasic fit, kon from the fast eigenvalue.
The target is the same in test [4]. Description: stopped-flow fluorescence anisotropy kinetics (dual-channel, rF(t)); 17 °C; preformed yTBP (220 nM)-AdMLP31ds*Flint (20 nM) in syringe 1, 850 nM TFIIA in syringe 2 (concentrations after mixing); 25 mM Tris, 100 mM KCl, 5 mM MgCl2, 1 mM CaCl2, 2 mM DTT; biphasic fit, kon from the fast eigenvalue.

B1: yeast Transcription Factor II A (complex)
chain 1: MSNAEASRVYEIIVESVVNEVREDFENAGIDEQTLQDLKNIWQKKLTETKVTTFSWDNQFNEGNINGVQNDLNFNLATPGVNSSEFNIKEENTGNEGLILPNINSNNNIPHSGETNINTNTVEATNNSGATLNTNTSGNTNADVTSQPKIEVKPEIELTINNANITTVENIDDESEKKDDEEKEEDVEKTRKEKEQIEQVKLQAKKEKRSALLDTDEVGSELDDSDDDYLISEGEEDGPDENLMLCLYDKVTRTKARWKCSLKDGVVTINRNDYTFQKAQVEAEWV
chain 2: MAVPGYYELYRRSTIGNSLVDALDTLISDGRIEASLAMRVLETFDKVVAETLKDNTQSKLTVKGNLDTYGFCDDVWTFIVKNCQVTVEDSHRDASQNGSGDSQSVISVDKLRIVACNSKKSE
modifications: Construct and limits are not given; the full-length TOA1/TOA2 heterodimer is assumed. Species is inferred from the label yTFIIA and the S. cerevisiae TBP used with it.
On to B1, for which the kon in test [1] was determined as 4.68e+06 M⁻¹ s⁻¹; in test [3], 1.45e+06 M⁻¹ s⁻¹; in test [4], 1.84e+06 M⁻¹ s⁻¹. In test [2], the Kd is 2.1 to 6.6 nM. Also, the dH in test [2] was 19.6 ± 1.6 kcal/mol.
